US6063627

Test system: Cre recombinase (Bacteriophage P1)
Experiment: cell_activity
Settings: cotransfection with Cre-expressing plasmid

Substance Lox sites in pEOBglugl has an activity (log induction of beta-glucuronidase) greater than 3.
